# Source: publication doi:10.1101/2022.02.15.480544 (bioRxiv, 2022)
# Substitutions are numbered along the chain they refer to. Names may count otherwise.
# B1: Bacillus subtilis RecA, wild type, hexa-histidine fusion (natural protein, B. subtilis, UniProt P16971 11-348, looked up)
# chain: ALKQIEKQFGKGSIMKLGEKTDTRISTVPSGSLALDTALGIGGYPRGRIIEVYGPESSGKTTVALHAIAEVQQQGGQAAFIDAEHALDPVYAQKLGVNIEELLLSQPDTGEQALEIAEALVRSGAVDIVVVDSVAALVPKAEIEGDMGDSHVGLQARLMSQALRKLSGAINKSKTIAIFINQIREKVGVMFGNPETTPGGRALKFYSSVRLEVRRAEQLKQGNDVMGNKTKIKVVKNKVAPPFRTAEVDIMYGEGISKEGEIIDLGTELDIVQKSGSWYSYEEERLGQGRENAKQFLKENKDIMLMIQEQIREHYGLDNNGVVQQQAEETQEELEFEE
# B2: Bacillus subtilis RecA K70R (Walker A mutant, no ATPase activity), hexa-histidine fusion (natural protein, B. subtilis, UniProt P16971 11-348, looked up)
# chain: B1 chain with K60R
# B3: Bacillus subtilis RecA K70A (Walker A mutant, lowered ATP binding), hexa-histidine fusion (natural protein, B. subtilis, UniProt P16971 11-348, looked up)
# chain: B1 chain with K60A
# Molecular target: the molecule itself
# Assay: mass photometry
row,Protein,stoichiometry N
1,B1,2
2,B2,2
3,B3,2
